Experimental data published in the RNAGym collection of RNA variant scans (doi:10.1073/pnas.2313332121).

B1: TPR t1 (parent)
chain: GACCAAUCUGCCCUCAGAGCUCGAGAACAUCUUCGGAUGCAGAGGAGGCAGGCUUCGGUGGCGCGAUAGCGCCAACGUCCUCAACCUCCAAUGCAUCCCACCACAUGAUGAUGCCUGAAGAGCCUUGGUUUUUUG

Variants of: B1
Experiment: polymerase ribozyme fitness, log enrichment relative to wild type (log ratio); higher = more active; in vitro selection for triplet polymerase activity
How it was run: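 Libraries of mutants in each subunit of a heterodimeric triplet polymerase ribozyme were generated by PCR and transcribed. In triplicate, each went through one in vitro selection round: annealing with biotinylated primer, partner subunit and triplets; frozen incubation at −7 °C; gel excision of extended constructs; streptavidin-bead capture; RT-PCR. Fitness, taken from Illumina sequencing of input and output libraries, is the logarithm of a genotype's enrichment over wild-type enrichment, averaged across replicates with inverse-variance weights. The logarithm is base 2, and genotypes needed ≥10 input reads and ≥1 read per output to be kept.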

Variant | polymerase ribozyme fitness (log ratio)
C20U U38A A50U G71A | -4.89
C20U U55A C79U G120A | -1.1
C20U U55G C56A | -1.7
C20U U96G | -1.9
U21A A24G C70U | -2.2
U21A A27C | -3.89
U21A A37C U38G U112G G122C C124U G135A | -1.11
U21A A37U C72U | -0.453
U21A A37U C94U G120A | 0.736
U21A A43U C72A | -2.36
U21A A43U G60A C115U | -2.81
U21A A43U G61U C102A | -4.93
U21A A46U C53A G63C | -1.83
U21A A46U G93A G113U U130A U132A | -3.92
U21A A66U U112G | -0.949
U21A A119U | -0.295
U21A C22A C40U C73U C101A U133G | -5.39
U21A C22G A27U C56U C114U | -3.34
U21A C34A C82A C123U U133G | -2.66
U21A C40A A46U A90U G93U | -2.45
U21A C49G C62A G113C | -4.99
U21A C56A | -0.423
U21A C56U | -0.334
U21A C62A C89U G110A U112C | -5.55

Variant | polymerase ribozyme fitness (log ratio)
U21A C72A U125G | -0.653
U21A C72G C86G | -2.59
U21A C76U A91C | -2.35
U21A C94G | -1.64
U21A C104U | -0.273
U21A C123G G128C | -1.09
U21A C124G | 0.373
U21A G23A A121C | -5.61
U21A G23U G42C A68G C94A U112A | -6.75
U21A G36A | -0.614
U21A G39C C49U G63A A75G A121C | -2.73
U21A G42C | -1.94
U21A G44A C62U | -1.4
U21A G45A G58A G60U A100U C101G | -2.68
U21A G52A C89U | -1.17
U21A G57C G120A | -0.312
U21A G60A U96C U116G | -1.53
U21A G69A U112A | -3
U21A U59C G69U C123A G128C | -3.33
U21A U81A C101A G113C | -4.64
U21A U87A | 0.177
U21A U87G | -0.0526
U21A U92A | -3.73
U21C A41G G44A C98U | -4.24

Variant | polymerase ribozyme fitness (log ratio)
U21C A50U C70U C99U A111U | -7.45
U21C A95C G107C U109A G113A C124U | -7.51
U21C C22A G69C | -4.23
U21C C22U C53G G57U G60A | -5.06
U21C C28A G57U C70A U78G G110U | -3.7
U21C C56A G58A G113C U132A | -2.29
U21C C56U C62A G63A A90C C101A U112C | -6.74
U21C C70G C94U A111G G128A U131A | -3.27
U21C C124U | 1.84
U21C G23A G44C G48A A90U C97G C101U C102U C114A | -7.25
U21C G52U G60C | -1.61
U21C G57A C72U G77C U96A A121U U125A | -3.06
U21C G61C | -2.11
U21C G69U C89U | -0.984
U21C G77A C88U U106C G110A | -5
U21C G77C | -0.73
U21C U30G C31A G36C C124A | -4.94
U21C U55A U78A U131A | -0.459
U21C U59G C101A | -1.38
U21C U78C U96C C114A | -1.81
U21G A26U C72A C104A G110U U125G | -7.09
U21G A37G A41U G113U | -2.41
U21G A37G A41U U78C G113U | -2.05
U21G A37U C80A A121G | -3.51

Variant | polymerase ribozyme fitness (log ratio)
U21G A84C | -2.02
U21G A121U | 0.0323
U21G C40A U92A | -2.98
U21G C56U U78G C86U A121G | -0.445
U21G C64U G77A G93U | -3.27
U21G C70U G93A | -3.75
U21G G47A A100C U109A U112C A119G | -7.27
U21G G48C | -1.56
U21G G48C G63A | -4.12
U21G G63C U78A C115U A119U U130A | -5.59
U21G G71U G110U U112A | -1.83
U21G G93A C114U | -3.41
U21G G117A | -2.55
U21G U54C G58A U81A A91G A95U G113A U125G | -5.59
U21G U87C C114U | -1.41
C22A A26U | -4.2
C22A A37U | -5.66
C22A A37U C53U C73G | -5.35
C22A A43C U78C A83C C86U G113A | -5.47
C22A A43U U106C C114U | -4.24
C22A A83G U96A C114A | -5.87
C22A C31A C64G C97U C115A G127U U129G U130G | -6.15
C22A C31G G60U U96A | -6.4
C22A C40A C73A C123U | -4.93

Variant | polymerase ribozyme fitness (log ratio)
C22A C40G G58C G60A | -4.83
C22A C49U C73G | -4.03
C22A C49U C73G C124G | -4.49
C22A C53G | -5
C22A C56G | -4.66
C22A C70U G77C | -6.73
C22A C72A U106A A118G | -3.71
C22A C72G A83G C115A | -5.56
C22A C73A | -4.25
C22A C88U | -4.66
C22A C101U U106C | -5.01
C22A G36A U55C U96A A111U | -6.03
C22A G36U U55C G120A | -4.54
C22A G39A | -5.08
C22A G44C A46U C101A A121C | -4.64
C22A G44U G93A C124U | -4.53
C22A G48U C49U C62G G69A A108G A111C | -6.98
C22A G51A G71C A111C | -6.96
C22A G52A G60A G117U C123U U131C | -6.69
C22A G52U A66U U112G | -5.88
C22A G57U U106A A118G U133C | -3.51
C22A G60C C73U | -5.64
C22A G61A | -4.54
C22A G93U | -6.27

Variant | polymerase ribozyme fitness (log ratio)
C22A U55C | -4.37
C22A U55G | -4.85
C22A U59A | -5.52
C22A U87A | -4.86
C22A U116C A121G U129C | -5.72
C22A U129G | -6.22
C22G A26C C94A A95U A119G | -4.33
C22G A27C U59A A95G | -3.9
C22G A37U G69U U87G | -2.42
C22G A41C G44C C79G A90C | -6.07
C22G A46U C76U C98U | -5.32
C22G A50C A75G | -3.94
C22G A50G C73G C94A G120C | -4.89
C22G A103U | -4.6
C22G A111C | -3.66
C22G C34U U38A U54C A83C U106G U109A C114G | -6.61
C22G C40G G45A G47C C72G U112G U132A | -4.49
C22G C49A G117U | -3.11
C22G C53G G63C G113U | -5.64
C22G C53U C85U U112A | -3.51
C22G C64U U112G | -2.89
C22G C72G | -2.12
C22G C73A G93A | -4.3
C22G C73U | -2.27

Variant | polymerase ribozyme fitness (log ratio)
C22G C76U G77C C124U U131G | -3.47
C22G G23A C89U C114U | -4.41
C22G G36C G42U A91U U112A U129G | -4.65
C22G G39A C56U | -3.12
C22G G42U | -4.63
C22G G45A C88G | -4.78
C22G G45U C56G A111U | -3.8
C22G G48A G69C U78A U87C | -5.69
C22G G48C C85G U112G | -3
C22G G48C G77A C85G U112G | -3.5
C22G G51A C72G | -4.82
C22G G51A U81A C115U U130A | -5.32
C22G G57U U92C A100U C104A G113A | -7.69
C22G G61C A68C C123U | -6.92
C22G G61U C124A | -1.97
C22G G63A | -4.12
C22G G69A A90U U106A A111U | -4.92
C22G G69U U112A A118U | -0.675
C22G G93C A103G G110U | -6.45
C22G G110C C123G | -5.98
C22G G117A A119G | -1.55
C22G U32G C70G C124A | -5.41
C22G U38G A43G G113U A119G | -4.22
